Test results from patent publication US20140212888A1.

Target: WT1 (mutant) peptide presented by HLA-A*24:02 on HLA-A*24:02 positive LCL (human)
Experiment: cell-based or functional assay

B1: 37F8-derived TCR, WT1 TCR A12-3/B5-1 (TCR α-chain TRAV12-3/TRAJ52/TRAC, TCR β-chain TRBV5-1/TRBD2/TRBJ2-5/TRBC2) (TCR)
TCR alpha: WVWSQQKEVEQDPGPLSVPEGAIVSLNCTYSNSAFQYFMWYRQYSRKGPELLMYTYSSGNKEDGRFTAQVDKSSKYISLFIRDSQPSDSATYLCATSNAGGTSYGKLTFGQGTILTVHPNIQNPDPAVYQLRDSKSSDKSVCLFTDFDSQTNVSQSKDSDVYITDKTVLDMRSMDFKSNSAVAWSNKSDFACANAFNNSIIPEDTFFPSPESSCDVKLVEKSFETDTNLNFQNLSVIGFR
TCR beta: GPVKAGVTQTPRYLIKTRGQQVTLSCSPISGHRSVSWYQQTPGQGLQFLFEYFSETQRNKGNFPGRFSGRQFSNSRSEMNVSTLELGDSALYLCASSYGERERKGETQYFGPGTRLLVLEDLKNVFPPEVAVFEPSEAEISHTQKATLVCLATGFYPDHVELSWWVNGKEVHSGVSTDPQPLKEQPALNDSRYCLSSRLRVSATFWQNPRNHFRCQVQFYGLSENDEWTQDRAKPVTQIVSAEAWGRADCGFTSESYQQGVLSATILYE
How did the cytotoxic activity (%) turn out when B1 was run?
The cytotoxic activity (%) was 73%.
